In article PMC11046700 (Proceedings of the National Academy of Sciences of the …, 2024):

Molecular target: the molecule itself
Assay: SEC

B1: mouse WT-APOA5 (mouse apolipoprotein AV with an N-terminal mouse albumin tag) (natural protein, UniProt Q8C7G5 21-368, looked up)
chain: RKSLWDYFSQNSWSKGVMGQPQKLAQENLKGSFEQDLYNMNNYLEKLGPLRGPGKEPPLLAQDPEGIRKQLQQELGEVSSRLEPYMAAKHQQVGWNLEGLRQQLKPYTAELMEQVGLSVQELQEQLRVVGEDTKAQLLGGVDEALNLLQDMQSRVLHHTDRVKELFHPYAERLVTGIGHHVQELHRSVAPHAAASPARLSRCVQTLSHKLTRKAKDLHTSIQRNLDQLRDELSAFIRVSTDGAEDGDSLDPQALSEEVRQRLQAFRHDTYLQIAAFTQAIDQETEEIQHQLAPPPPSHSAFAPELGHSDSNKALSRLQSRLDDLWEDIAYGLQDQGHSHLSDPEGHSG
- stoichiometry N: 2
